Measured values published in patent US20140249045.
Where a chain is given by its changes, count along the chain named. In names and notes the source's numbering stands.

B1: His-LRS-(759-1176) (protein)
chain: MADAGILRLYTWVEWVKEMVANWDSLRSGPASTFNDRVFASELNAGIIKTDQNYEKMMFKEALKTGFFEFQAAKDKYRELAVEGMHRELVFRFIEVQTLLLAPFCPHLCEHIWTLLGKPDSIMNASWPVAGPVNEVLIHSSQYLMEVTHDLRLRLKNYMMPAKGKKTDKQPLQKPSHCTIYVAKNYPPWQHTTLSVLRKHFEANNGKLPDNKVIASELGSMPELKKYMKKVMPFVAMIKENLEKMGPRILDLQLEFDEKAVLMENIVYLTNSLELEHIEVKFASEAEDKIREDCCPGKPLNVFRIEPGVSVSLVNPQPSNGHFSTKIEIRQGDNCDSIIRRLMKMNRGIKDLSKVKLMRFDDPLLGPRRVPVLGKEYTEKTPISEHAVFNVDLMSKKIHLTENGIRVDIGDTIIYLVH
B2: LRS (759-1176 a.a) fragment H844A (protein)
chain: B1 chain with H86A
B3: LRS (759-1176 a.a) fragment R845A (protein)
chain: B1 chain with R87A

Target: T1, RagD GTPase as used in the in vitro GTPase assay, Q9NQL2
T1 chain: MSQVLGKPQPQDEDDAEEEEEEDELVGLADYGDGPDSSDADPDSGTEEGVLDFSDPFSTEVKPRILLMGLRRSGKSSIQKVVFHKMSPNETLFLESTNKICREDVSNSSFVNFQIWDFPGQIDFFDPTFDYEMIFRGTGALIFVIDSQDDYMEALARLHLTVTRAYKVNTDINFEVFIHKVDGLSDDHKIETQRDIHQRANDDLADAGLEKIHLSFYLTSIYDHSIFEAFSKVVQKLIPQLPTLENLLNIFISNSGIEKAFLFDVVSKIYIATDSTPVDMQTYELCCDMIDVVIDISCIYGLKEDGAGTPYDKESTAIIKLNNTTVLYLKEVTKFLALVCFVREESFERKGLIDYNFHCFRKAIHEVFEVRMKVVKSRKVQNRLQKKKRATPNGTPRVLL

Protein | GTP hydrolysis by RagD GTPase (in vitro GTPase assay) | GAP activity on RagD (in vitro GTPase assay)
B1 | addition of WT LRS fragment (759-1176 a.a) enhanced GTP hydrolysis by RagD GTPase in dose- and time-dependent manner | –
B2 | – | H844A and R845A mutants lost their GAP activity while WT LRS showed GAP activity
B3 | – | H844A and R845A mutants lost their GAP activity while WT LRS showed GAP activity
